Test system: N[C@@H](CO)C(=O)O
Assay: purified protein, by the assay type
Conditions: pH 7.6; 37.0 °C

For HsSerRS (Homo sapiens), the Km was 1083 ± 156 µM.
